Values belong to the binder of their own block, whether it stands above or below them. *1 amine or outer side, *2 acyl side, *3 side chain or, on linkers, in order; H or OH if unused. Bridges are numbered along the chain shown (N, C = ends). Where no end group is shown, it is not given here. TBMB = c1c(C[*:1])cc(C[*:3])cc1C[*:2]
Key:
[1] = molecular target: T1, Prostate-specific membrane antigen (PSMA) (human, UniProt Q04609 44-750, limits assumed); assay: fluorescence polarization assay, FP(h), PSMA
T1 construct: the construct used in the fluorescence polarization and enzyme assays is not described (methods cited from Shen et al 2013 and WO 2009/070302); also called Glutamate carboxypeptidase II; GCPII
Protocol: PSMA binding was measured using the fluorescence polarization assay methodology described in Shen et al (2013) PLOS ONE 8(7), e68339 and PSMA enzyme inhibition was measured using the methodology described in WO 2009/070302.

[2] = molecular target: T1, Prostate-specific membrane antigen …; assay: cell-based or functional assay

T1 sequence (Q04609 44-750 limits assumed): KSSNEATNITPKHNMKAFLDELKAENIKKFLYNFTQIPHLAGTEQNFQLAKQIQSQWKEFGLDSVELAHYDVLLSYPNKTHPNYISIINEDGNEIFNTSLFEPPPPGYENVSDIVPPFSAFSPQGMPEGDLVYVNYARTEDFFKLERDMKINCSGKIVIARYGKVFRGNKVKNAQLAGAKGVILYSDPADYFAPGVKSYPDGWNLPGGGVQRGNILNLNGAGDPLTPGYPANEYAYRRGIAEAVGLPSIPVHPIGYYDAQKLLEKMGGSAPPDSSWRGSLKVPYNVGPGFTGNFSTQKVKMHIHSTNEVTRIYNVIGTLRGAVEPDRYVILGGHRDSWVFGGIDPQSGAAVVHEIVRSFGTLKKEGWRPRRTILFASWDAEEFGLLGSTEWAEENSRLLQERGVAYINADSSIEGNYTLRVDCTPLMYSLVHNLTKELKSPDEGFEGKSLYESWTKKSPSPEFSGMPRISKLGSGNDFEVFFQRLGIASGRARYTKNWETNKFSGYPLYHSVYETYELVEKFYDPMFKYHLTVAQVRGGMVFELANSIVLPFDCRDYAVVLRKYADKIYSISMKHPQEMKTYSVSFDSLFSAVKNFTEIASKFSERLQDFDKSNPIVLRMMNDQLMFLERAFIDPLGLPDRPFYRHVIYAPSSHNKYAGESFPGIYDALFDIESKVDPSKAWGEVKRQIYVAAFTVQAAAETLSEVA

Ki [1]: 40 nM | Enzyme inhibition IC50 [2]: 695 nM
B1: 21-31-N002 (peptide)
peptide: ACMVCHMMEDGTCA
modifications: linker 2-5-13 via TBMB (inferred)
notes: Bicyclic peptide on TBMB scaffold

Ki [1]: 70 nM
B2: 21-31-01-N001 (peptide)
peptide: CIECYIMEDGTCA
modifications: linker 1-4-12 via TBMB (inferred)
notes: as for B1

Ki [1]: 30 nM
B3: 21-31-04-T01-N007 (peptide)
peptide: EVCWDCFMMEDGTCAXXXXXXK
modifications: not fully specified; N-terminal acetyl (Ac); D-residue at the N-terminus (printed (D-E) / (D-Gln)); Sar6 = six sarcosine residues; C-terminal D-Lys; Ci, Cii and Ciii cyclised with TBMB (tri-substituted 1,3,5-trismethylbenzene scaffold)
notes: as for B1

Ki [1]: 6 nM
B4: 21-31-11-T01-N001 (peptide)
peptide: FCSECYMMEDGTCA
modifications: linker 2-5-13 via TBMB (inferred)
notes: as for B1

— US20220054646A1 (Bicycle, published 2022)
